One test has as its target histone H3 (unmodified) (Drosophila melanogaster, UniProt P02299).
The target in test [1] is histone H3 (K4 trimethylated) (Drosophila melanogaster, UniProt P02299).

B1: Caf1 (protein)
chain: MVDRSDNAAESFDDAVEERVINEEYKIWKKNTPFLYDLVMTHALEWPSLTAQWLPDVTKQDGKDYSVHRLILGTHTSDEQNHLLIASVQLPSEDAQFDGSHYDNEKGEFGGFGSVCGKIEIEIKINHEGEVNRARYMPQNACVIATKTPSSDVLVFDYTKHPSKPEPSGECQPDLRLRGHQKEGYGLSWNPNLNGYLLSASDDHTICLWDINATPKEHRVIDAKNIFTGHTAVVEDVAWHLLHESLFGSVADDQKLMIWDTRNNNTSKPSHTVDAHTAEVNCLSFNPYSEFILATGSADKTVALWDLRNLKLKLHSFESHKDEIFQVQWSPHNETILASSGTDRRLHVWDLSKIGEEQSTEDAEDGPPELLFIHGGHTAKISDFSWNPNEPWIICSVSEDNIMQVWQMAENVYNDEEPEIPASELETNTA
What is called Kd is the free concentration of one partner at which half of the binding sites on the other are occupied at equilibrium, for simple one-to-one binding. Higher therefore signals weaker binding. In the test with histone H3 (unmodified), B1 displayed a Kd of about 600 nM.

B2: Caf1 (protein)
chain: B1 chain
modifications: H3K4me3
Take B2: the equilibrium dissociation constant (Kd) in test [1] was over 70000 nM.

The values above are taken from paper PMC10148413 (2023).
